# Laboratory results from PMC5407808.
# Tests used:
# [1] = system: HexA-6His (Photorhabdus luminescens TT01); assay: SPR; conditions: 5' biotin on forward primer (PpcfA-Btn_fwd; position implied); SPR (Biacore T200, streptavidin chip, ~300 RU DNA): HBS-EP+ 10 mM HEPES pH 7.4, 150 mM NaCl, 3 mM EDTA, 0.05% Surfactant P20, 25 C …
# [2] = molecular target: HexA-6His (Photorhabdus luminescens TT01); assay: SEC + other: dynamic light scattering; gel filtration of purified HexA-6His on a Superdex 200 column; DLS of the HexA peak fraction from gel filtration
substance,measurement,setting,value
PpcfA promoter fragment (400 bp),Kd,[1],1300 nM
HexA-6His (natural protein),stoichiometry N,[2],4
